These results are taken from paper PMC10957929.

The data set deals with T1, GST-DRG9Nip (Oryza sativa ssp. japonica cv. Nipponbare) (UniProt Q69P58).
T1 sequence: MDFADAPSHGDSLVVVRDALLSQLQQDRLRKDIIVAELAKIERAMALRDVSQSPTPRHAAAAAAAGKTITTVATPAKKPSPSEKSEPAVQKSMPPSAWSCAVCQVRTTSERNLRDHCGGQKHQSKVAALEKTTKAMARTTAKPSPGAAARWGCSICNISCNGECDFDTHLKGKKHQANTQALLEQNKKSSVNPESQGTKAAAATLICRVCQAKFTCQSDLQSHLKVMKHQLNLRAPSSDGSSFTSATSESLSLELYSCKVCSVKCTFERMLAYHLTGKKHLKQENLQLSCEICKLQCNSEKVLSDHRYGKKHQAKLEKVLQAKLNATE
In words: EMSA. Particulars: 20 mM Hepes pH 7.5, 20 mM KCl2 (so in the source), 1 mM MgCl2, 10 mM ZnCl2, 5 mM DTT, 10% glycerol, 0.1% NP-40, room temperature, 1 h; 6% native PAGE, 0.5x TBE. Background: In EMSA bound probe runs differently from free probe, usually more slowly.

Turning to “GGGCUCAAAUUAAUUAGCCAGUGAAAAAUCAAAUUACAGAGUUGCUUAAUUUUUUUACUAGUAGAACGCAACAGUAAAAAGAAUUAACAGCAGUGAAUUAUUAGUUAAUUAGCUAGGGAGUUGAAAUAGUUUAGCGGUCAUGCACUACUGAUUUUUAAUUAGUGCAGACAACGACCGCGUGUGUGUAUAUGCAUGUAUACCUUUUACUGUAUCUUCAGAUUGUGUAUAUAUAUCAUAUAUGUACAGGAAAAGAUUUAUAUAUCAUACAUAUUUUGUUGU [OsNCED4 3'-UTR RNA]”, the binding entry is given as “binds”.
